Measured values from paper PMC11526172.
Where two headings read alike, the source gives them in different places.

Key:
[1] = biological target: T1, hOGG1 K249Q (catalytically inactive) (Homo sapiens, UniProt O15527 1-345, K249Q); assay: EMSA
[2] = biological target: T1, hOGG1 K249Q (catalytically inactive); assay: EMSA; remark: listed apart in the source

T1 sequence (O15527 whole entry K249Q): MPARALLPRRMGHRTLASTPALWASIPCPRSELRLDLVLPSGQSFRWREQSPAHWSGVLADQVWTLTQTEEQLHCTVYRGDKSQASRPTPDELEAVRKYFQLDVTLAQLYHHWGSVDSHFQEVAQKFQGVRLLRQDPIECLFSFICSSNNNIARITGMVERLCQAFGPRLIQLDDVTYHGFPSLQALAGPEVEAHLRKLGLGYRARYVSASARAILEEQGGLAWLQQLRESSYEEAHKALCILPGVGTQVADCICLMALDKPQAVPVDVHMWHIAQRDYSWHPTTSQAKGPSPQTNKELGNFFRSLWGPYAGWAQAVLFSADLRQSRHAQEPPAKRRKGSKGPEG

B1: dsDNA (145 bp 601, unmodified) (dsDNA)
DNA 1: ATCGATGTATATATCTGACACGTGCCTGGAGACTAGGGAGTAATCCCCTTGGCGGTTAAAACGCGGGGGACAGCGCGTACGTGCGTTTGAGCGGTGCTAGAGCTGTCTACGACCAATTGAGCGGCCTCGGCACCGGGATTCTGAT
DNA 2: ATCAGAATCCCGGTGCCGAGGCCGCTCAATTGGTCGTAGACAGCTCTAGCACCGCTCAAACGCACGTACGCGCTGTCCCCCGCGTTTTAACCGCCAAGGGGATTACTCCCTAGTCTCCAGGCACGTGTCAGATATATACATCGAT
In the case of B1, the Kd [1] is reported as 1310 ± 200 nM.

B2: dsDNA-8-oxodGuo-89 (dsDNA)
DNA 1: B1 DNA 1
DNA 2: B1 DNA 2
modifications: 8-oxodGuo at G89 of strand 1
Binder B2 has a Kd [2] of 300 ± 10 nM.

B3: dsDNA-8-oxodGuo-137 (dsDNA)
DNA 1: B1 DNA 1
DNA 2: B1 DNA 2
modifications: 8-oxodGuo at G137 of strand 1
Binder B3 has a Kd [2] of 420 ± 20 nM.

B4: dsDNA-8-oxodGuo-73 (dsDNA)
DNA 1: B1 DNA 1
DNA 2: B1 DNA 2
modifications: 8-oxodGuo at G73 of strand 1
For B4, the Kd [2] was 240 ± 10 nM.
